# Experimental data from US20210317176A1.
# Molecular target: beta-klotho
# Experiment: cell-based or functional assay
Substance,EC50 (ELK-luciferase assay) [nM],Efficacy (ELK-luciferase assay) [%]
"hFc.L15.hFGF21(L98R, P171G, Y179S) (Fc fusion)",25.3,74.8
"hFc.L15.hFGF21(L98R, P171G, A180S) (Fc fusion)",2.18,84.7
"hFc.L15.hFGF21(L98R, P171G, Y179A) (Fc fusion)",43.2,79.6
"hFc.L15.hFGF21(L98R, P171G, Y179G) (Fc fusion)",61,82.6
"hFc.L15.hFGF21(L98R, P171G, S181T) (Fc fusion)",3.07,77.6
"hFc.L15.hFGF21(L98R, P171G, GG182-3) (Fc fusion)",1940,84.2
"hFc.L15.hFGF21(L98R, P171G, A180G) (Fc fusion)",3.25,76.9
"hFc.L15.hFGF21(L98R, P171G, S181A) (Fc fusion)",2.66,73.5
"hFc.L15.hFGF21(L98R, P171G, P182) (Fc fusion)",6.1,85.9
"hFc.L15.hFGF21(L98R, P171G) (Fc fusion)",2.5,76.1

# Continued, values first:
EC50 (ELK-luciferase assay) [nM],Efficacy (ELK-luciferase assay) [%],Substance
4310,99.7,"hFc.L15.hFGF21(L98R, P171G, GGGGG182-6) (Fc fusion)"
617,77.1,"hFc.L15.hFGF21(L98R, P171G, A180P) (Fc fusion)"
167,63.9,"hFc.L15.hFGF21(1-178, L98R, P171G) (Fc fusion)"
130,87.9,"hFc.L15.hFGF21(L98R, P171G, S181K) (Fc fusion)"
834,83.1,MKEDD.hFGF21.L15.hFc (Fc fusion)
272,69.9,"hFc.L15.hFGF21(L98R, P171G, S181P, P182) (Fc fusion)"
428,44.4,"hFc.L15.hFGF21(L98R, P171G, Y179P) (Fc fusion)"
6.5,71.1,"hFc.L15.hFGF21(L98R, P171G, G182) (Fc fusion)"
33.8,79.5,"hFc.L15.hFGF21(L98R, P171G, S181P) (Fc fusion)"
3.46,72.6,"hFc.L15.hFGF21(L98R, P171G, S181L) (Fc fusion)"
2.6,78.3,"hFc.L15.hFGF21(L98R, P171G, Y179F) (Fc fusion)"
7.8,77.4,"hFc.L15.hFGF21(L98R, P171G, 1-179) (Fc fusion)"
3.43,77.3,"hFc.L15.hFGF21(L98R, P171G, S181G) (Fc fusion)"
1.9,79.6,"hFc.L15.hFGF21(L98R, P171G, A180E) (Fc fusion)"
